Positions count from the first letter of the chain named. Numbers in names are those of the source.
B1: trimethylamine monooxygenase from Pelagibacter sp. HTCC7211 (Tmm_(7211)) (enzyme, UniProt B6BQB2 1-444, looked up)
chain: MSKVAIIGAGPCGLSILRAFEHLEKKGEKIPEIVCFEKQESWGGLWNYNWRTGSDQYGDPVPNSMYRYLWSNGPKECLEFADYSFDQHFGKSIPSFPPREVLQDYILGRVSKGNIKNKIKFNTRVINTVYRNDKFEINYQDKVNDKTLSDTFDYLVVSTGHFSVPFIPEYEGMSSFPGRIMHSHDFRDAEEFRGKNVIVLGSSYSAEDVALQCNKYGAKSVTIGYRHNPMGFKWPKGMKEVHYLDKLDGKKAIFKDGTEQDADVVILCTGYLHHFPFLDESLKLKTHNRLYPPKLYKGVVWQDNHKLLYLGMQDQFHTFNMFDCQAWFARDVIMDKIKMPSDDEIDKDINKWVSMEEKLENPDQMIDFQTEYTKELHNISDYPKIDFELIRKHFKEWEHHKVEDILTYRNKSFSSPVTGSVAPVHHTPWEKAMDDSMKTFLNKR
notes: trimethylamine monooxygenase (Tmm, EC 1.14.13.148), a bacterial flavin-containing monooxygenase of the SAR11 bacterium Pelagibacter sp; HTCC7211; 1335-bp full-length tmm gene, synthesised; 444 amino acid residues, calculated mass 52 kDa; NADPH (5 mM) was added before crystallisation, and NADP+ and FAD are seen in the structure; Cloned in pET28a; also called WT Tmm_(7211); recombinant Tmm_(7211); …
B2: Tmm7211 (Candidatus Pelagibacter sp. HTCC7211; H227A) (protein)
chain: B1 chain with H227A
notes: full-length synthesized gene (1335 bp, 444 residues, 52 kDa), N-terminal His tag (pET28a), E. coli BL21(DE3); Ni-NTA and Superdex-200
B3: Tmm7211 (Candidatus Pelagibacter sp. HTCC7211; R409A) (protein)
chain: B1 chain with R409A
notes: as for B2
B4: Tmm7211 (Candidatus Pelagibacter sp. HTCC7211; D314A) (protein)
chain: B1 chain with D314A
notes: as for B2
B5: Tmm7211 (Candidatus Pelagibacter sp. HTCC7211; D314E) (protein)
chain: B1 chain with D314E
notes: as for B2
B6: Tmm7211 (Candidatus Pelagibacter sp. HTCC7211; S203A) (protein)
chain: B1 chain with S203A
notes: as for B2
B7: Tmm7211 (Candidatus Pelagibacter sp. HTCC7211; N288A) (protein)
chain: B1 chain with N288A
notes: as for B2
B8: Tmm7211 (Candidatus Pelagibacter sp. HTCC7211; R226A) (protein)
chain: B1 chain with R226A
notes: as for B2
B9: Tmm7211 (Candidatus Pelagibacter sp. HTCC7211; N72A) (protein)
chain: B1 chain with N72A
notes: as for B2

Tests used:
Tmm7211 [1] = molecular target: T1, Tmm7211 (Candidatus Pelagibacter sp. HTCC7211, UniProt B6BQB2); assay: X-ray crystal structure, […] Å; format: binding
T1 construct: gene tmm; full-length synthesized gene (1335 bp, 444 residues, 52 kDa), N-terminal His tag (pET28a), E. coli BL21(DE3); Ni-NTA and Superdex-200
T1 sequence (B6BQB2 1-444): B1 chain

Tmm7211 [2] = molecular target: T1, Tmm7211; assay: NADPH oxidation at […] nm; format: biochemical; conditions: read-out: Apparent KM; 0.25 mM NADPH, 1 μM enzyme, 10 mM Tris-HCl pH 7.0, 100 mM NaCl
purified protein [3] = substrate: CN(C)C; assay: purified protein; format: biochemical, Candidatus Pelagibacter sp. HTCC7211; conditions: 0.25 mM NADPH, 1 μM enzyme, 10 mM Tris-HCl pH 7.0, 100 mM NaCl; pH 7.0
purified protein [4] = substrate: NC(=O)C1=CN([C@@H]2O[C@H](COP(=O)(O)OP(=O)(O)OC[C@H]3O[C@@H](n4cnc5c(N)ncnc54)[C@H](OP(=O)(O)O)[C@@H]3O)[C@@H](O)[C@H]2O)C=CC1; assay: purified protein; format: biochemical, Candidatus Pelagibacter sp. HTCC7211; conditions: 1 mM DMS, 1.5 μM enzyme
purified protein [5] = substrate: CSC; assay: purified protein; format: biochemical, Candidatus Pelagibacter sp. HTCC7211; conditions: 0.25 mM NADPH, 1 μM enzyme, 10 mM Tris-HCl pH 7.0, 100 mM NaCl; pH 7.0
purified protein [6] = substrate: Cn1cc[nH]c1=S; assay: purified protein; conditions: 0.25 mM NADPH, 1 μM enzyme, 10 mM Tris-HCl pH 7.0, 100 mM NaCl
[7] = molecular target: the molecule itself; assay: SEC; analytical gel filtration on a calibrated Superose 6 column, 10 mM Tris-HCl (pH 8.0), 100 mM NaCl; apparent mass 95 kDa against 52 kDa calculated for the monomer

| Molecule | Km (purified protein [4]) | kcat (purified protein [4]) | other results |
| --- | --- | --- | --- |
| Cc1cc2nc3c(=O)[nH]c(=O)nc-3n(C[C@H](O)[C@H](O)[C@H](O)COP(=O)(O)OP(=O)(O)OC[C@H]3O[C@@H](n4cnc5c(N)ncnc54)[C@H](O)[C@@H]3O)c2cc1C [FAD] | – | – | X-ray crystal structure, 1.8 Å (Tmm7211 [1]; FAD bound during expression in E. coli): the NADP^+ and FAD molecules can be clearly observed in the structure |
| CNC [DMA] | – | – | Km (Tmm7211 [2]): 181 ± 23.7 µM |
| NC(=O)c1ccc[n+]([C@@H]2O[C@H](COP(=O)(O)OP(=O)(O)OC[C@H]3O[C@@H](n4cnc5c(N)ncnc54)[C@H](OP(=O)(O)O)[C@@H]3O)[C@@H](O)[C@H]2O)c1 [NADP^+] | – | – | X-ray crystal structure, 1.8 Å (Tmm7211 [1]; crystallised with 5 mM NADPH): the NADP^+ and FAD molecules can be clearly observed in the structure |
| B1 | 12.8 ± 0.4 µM | 0.075 ± 0.005 s⁻¹ | Km (purified protein [3]): 139.0 ± 10.7 µM; kcat (purified protein [3]): 0.373 ± 0.0133 s⁻¹; kcat/Km (purified protein [3]): 2690 M⁻¹ s⁻¹; Km (purified protein [5]): 250.5 ± 23.0 µM; kcat (purified protein [5]): 0.075 ± 0.005 s⁻¹; kcat/Km (purified protein [5]): 300 M⁻¹ s⁻¹; Km (purified protein [6]): 116.2 ± 13.8 µM; kcat (purified protein [6]): 0.0867 s⁻¹; kcat/Km (purified protein [6]): 747 M⁻¹ s⁻¹; stoichiometry N [7]: 2 |
| B2 | 41.2 ± 2.3 µM | 0.0417 ± 0.00333 s⁻¹ | – |
| B3 | 44.9 ± 5.6 µM | 0.045 ± 0.00167 s⁻¹ | – |
| B4 | 32.0 ± 0.6 µM | 0.035 ± 0.00167 s⁻¹ | – |
| B5 | 9.7 ± 0.5 µM | 0.0867 ± 0.00333 s⁻¹ | – |
| B6 | 134.8 ± 11.1 µM | 0.0167 ± 0.00167 s⁻¹ | – |
| B7 | 61.1 ± 4.0 µM | 0.0217 ± 0.00167 s⁻¹ | – |
| B8 | 101.8 ± 8.6 µM | 0.015 ± 0.00167 s⁻¹ | – |
| B9 | 34.1 ± 1.0 µM | 0.0317 ± 0.00333 s⁻¹ | – |

Source: publication PMC8498191, “Structural and Mechanistic Insights Into Dimethylsulfoxide Formation Through Dimethylsulfide Oxidation” (Frontiers in Microbiology, 2021)
